Legend:
[1] = molecular target: T1, eukaryotic initiation factor 4AII library interactor (pAD-GAL4 construct, DNA Database of Japan accession no. … (human, UniProt P04386 761-881; Q14240 1-407, limits assumed); assay: yeast two-hybrid, retransfection of Hf7c
T1 construct: False positive of the Hf7c screen
Experimental: (§1) Transformants were plated onto solid SD/-His-Trp-Leu (incorporating 35 mM 3-AT in the case of Y190 transformants) and incubated for up to 14 days at 30° C. After 3 initial days of growth, plates were inspected daily, and His+ colonies were transferred to SD/-His-Trp-Leu +0.07 M potassium phosphate pH 7+40 µg/ml X-gal plates which incorporated 35 mM 3-AT in the case of Y190 co-transformants. Colonies which remained His+, and in the case of Y190 co-transformants, were also lacZ+, were re-streaked onto fresh plates to check that all colonies were of uniform phenotype. After 6 days incubation at 30° C., yeast colonies were directly harvested, and plasmid DNA was isolated and used to transfect XL1 Blue. Mini-preparations of plasmid DNA were performed for at least 5 XL1 Blue colonies per transfection, with the results of restriction digests differentiating potential interactors from bait plasmids. […] Phenotypes of resulting co-transfectants were assayed quantitatively and/or qualitatively as described above.

[2] = molecular target: T2, histidyl t-RNA synthetase library interactor (pAD-GAL4 construct, EBML accession no. Z 11518) (human, UniProt P04386 761-881; P12081 2-509, limits assumed); assay: yeast two-hybrid, retransfection of Hf7c
T2 construct: False positive of the Hf7c screen
T2 sequence (looked up): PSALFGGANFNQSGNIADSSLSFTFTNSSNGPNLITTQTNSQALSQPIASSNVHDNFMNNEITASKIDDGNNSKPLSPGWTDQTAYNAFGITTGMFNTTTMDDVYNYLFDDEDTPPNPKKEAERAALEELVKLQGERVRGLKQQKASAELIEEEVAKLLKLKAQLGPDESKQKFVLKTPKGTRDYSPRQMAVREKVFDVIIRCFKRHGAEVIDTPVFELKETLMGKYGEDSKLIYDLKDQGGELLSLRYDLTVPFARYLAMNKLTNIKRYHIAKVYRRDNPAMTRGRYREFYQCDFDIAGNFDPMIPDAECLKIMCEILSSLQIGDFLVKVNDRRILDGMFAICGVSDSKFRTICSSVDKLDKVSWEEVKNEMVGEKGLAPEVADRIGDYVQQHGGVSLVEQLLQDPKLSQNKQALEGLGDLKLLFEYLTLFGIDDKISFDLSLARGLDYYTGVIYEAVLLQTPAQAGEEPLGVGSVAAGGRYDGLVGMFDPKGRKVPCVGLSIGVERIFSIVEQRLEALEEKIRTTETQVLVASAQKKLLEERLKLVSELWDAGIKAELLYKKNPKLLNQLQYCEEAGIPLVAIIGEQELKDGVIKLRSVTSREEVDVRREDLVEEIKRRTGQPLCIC
Experimental: as §1

[3] = molecular target: T3, RING10 proteasome subunit library interactor (pAD-GAL4 construct, GenBank accession no. X62598) (human, UniProt P04386 761-881; P28062 73-276, limits assumed); assay: yeast two-hybrid, retransfection of Hf7c
T3 construct: False positive of the Hf7c screen
T3 sequence (looked up): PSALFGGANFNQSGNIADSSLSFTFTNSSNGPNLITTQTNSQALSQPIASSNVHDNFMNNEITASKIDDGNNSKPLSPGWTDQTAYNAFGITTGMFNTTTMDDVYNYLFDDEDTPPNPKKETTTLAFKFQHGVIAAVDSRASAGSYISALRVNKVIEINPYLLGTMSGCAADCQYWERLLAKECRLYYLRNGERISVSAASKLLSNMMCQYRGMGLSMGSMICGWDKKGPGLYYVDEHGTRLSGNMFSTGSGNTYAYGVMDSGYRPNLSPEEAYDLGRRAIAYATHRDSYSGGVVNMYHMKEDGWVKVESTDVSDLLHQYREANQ
Experimental: as §1

[4] = molecular target: T4, hD53 interactor (GAL4 activation domain fusion, pACT2hD53) (human, UniProt P04386 768-881 (Saccharomyces cerevisiae entry)); assay: yeast two-hybrid in Y190, β-galactosidase assay
T4 construct: range 768-881
T4 sequence: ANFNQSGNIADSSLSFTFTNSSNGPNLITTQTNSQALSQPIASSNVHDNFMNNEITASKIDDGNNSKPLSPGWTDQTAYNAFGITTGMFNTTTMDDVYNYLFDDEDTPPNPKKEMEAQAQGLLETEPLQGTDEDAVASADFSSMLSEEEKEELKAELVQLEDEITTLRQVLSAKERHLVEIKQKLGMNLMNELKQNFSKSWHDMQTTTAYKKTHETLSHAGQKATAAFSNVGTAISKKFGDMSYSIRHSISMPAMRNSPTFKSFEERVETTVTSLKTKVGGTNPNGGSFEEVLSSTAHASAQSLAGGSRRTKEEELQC
Experimental: Interactions between baits and interactors were assessed by qualitatively and/or quantitatively determining HIS3 and lacZ reporter gene activity in Y190 co-transfectants. Reporter gene activities were assessed qualitatively by observing the growth and color development of Y190 co-transfectants on solid SD media lacking His, Trp and Leu (SD/-His-Trp-Leu), and incorporating 0.07 M potassium phosphate pH 7, 35 mM 3-AT, and 40 µg/ml X-gal. For quantitative assessment of interactions, β-galactosidase activity was measured using the substrate o-nitrophenyl β-D-galactopyranoside (ONPG) in liquid cultures (SD/-His-Trp-Leu +35 mM 3-AT) of Y190 co-transfectants.

Measured: binding result

B1: mD52(95-185) bait (GAL4 DNA-binding domain fusion, pAS2-1mD52(95-185)) (other)
chain: MKLLSSIEQACDICRLKKLKCSKEKPKCAKCLKNNWECRYSPKTKRSPLTRAHLTEVESRLERLEQLFLLIFPREDLDMILKMDSLQDIKALLTGLFVQDNVNKDAVTDRLASVETDMPLTLRQHRISATSSSEESSNKGQRQLTVSAYKKTSETLSQAGQKASAAFSSVGSVITKKLEDVKNSPTFKSFEEKVENLKSKVGGAKPAGGDFGEVLNSTANATSTMTTEPPPEQMTESP
notes: also called C-terminal half of mD52
no binding: [1] | [2] | [3] | [4]

— patent US6458943 (INSTITUT NATIONAL DE LA SANTE ET DE LA RECHERCHE MEDICALE, dated 2002)
